What all share (conditions): both partners purified
One experiment addresses T1, mouse Rbpj (53-474) WT (mouse, UniProt P31266 53-474).
T1 construct: also called WT Rbpj; WT RBPJ; source: E. coli BL21 Tuner, purified (ammonium sulfate, glutathione resin, PreScission cut, SP ion exchange)
Briefly: ITC; cofactor (RAM peptide, Hairless or SHARP) in the syringe, Su(H) or Rbpj in the cell; 50 mM sodium phosphate, 150 mM sodium chloride; 20 injections, triplicate, one site model; 25°C by the legend, 20°C by the methods. For orientation: In ITC the heat of successive injections is recorded.

The target of experiment [1] is T2, mouse Rbpj (53-474) K195E (mouse, UniProt P31266 53-474, K195E).
T2 construct: also called Rbpj K195E; K195E (analogous to human RBPJ K169E); source: E. coli BL21 Tuner, purified (ammonium sulfate, glutathione resin, PreScission cut, SP ion exchange)
The description is as above.

Another experiment deals with T3, mouse Rbpj (53-474) E89G (mouse, UniProt P31266 53-474, E89G).
T3 construct: also called Rbpj E89G; E89G (analogous to human RBPJ E63G); source: E. coli BL21 Tuner, purified (ammonium sulfate, glutathione resin, PreScission cut, SP ion exchange)
The experiment is described as above.

In a further experiment the target is T4, mouse Rbpj WT (53-474) (mouse, UniProt P31266 53-474).
T4 construct: also called CBF1; mouse CSL; source: E. coli BL21 Tuner, pGEX-6P1, purified (glutathione resin, PreScission cleavage, SP ion exchange)
Briefly: ITC; RAM peptide, Hairless or SHARP in the syringe, Su(H) or Rbpj in the cell; 50 mM sodium phosphate, 150 mM sodium chloride; 20 injections of 14 uL; triplicate; one site binding model; 20°C by the methods, 25°C by the legend of Fig 6.

For another experiment, the target named is T5, mouse Rbpj E89G (53-474) (mouse, UniProt P31266 53-474, E89G).
T5 construct: also called analogous to human RBPJ E63G; source: E. coli BL21 Tuner, pGEX-6P1, purified (glutathione resin, PreScission cleavage, SP ion exchange)
The description is as above.

Experiment [2] has as its target T6, mouse Rbpj K195E (53-474) (mouse, UniProt P31266 53-474, K195E).
T6 construct: also called analogous to human RBPJ K169E; source: E. coli BL21 Tuner, pGEX-6P1, purified (glutathione resin, PreScission cleavage, SP ion exchange)
Described as above.

T5 sequence (P31266 53-474 E89G): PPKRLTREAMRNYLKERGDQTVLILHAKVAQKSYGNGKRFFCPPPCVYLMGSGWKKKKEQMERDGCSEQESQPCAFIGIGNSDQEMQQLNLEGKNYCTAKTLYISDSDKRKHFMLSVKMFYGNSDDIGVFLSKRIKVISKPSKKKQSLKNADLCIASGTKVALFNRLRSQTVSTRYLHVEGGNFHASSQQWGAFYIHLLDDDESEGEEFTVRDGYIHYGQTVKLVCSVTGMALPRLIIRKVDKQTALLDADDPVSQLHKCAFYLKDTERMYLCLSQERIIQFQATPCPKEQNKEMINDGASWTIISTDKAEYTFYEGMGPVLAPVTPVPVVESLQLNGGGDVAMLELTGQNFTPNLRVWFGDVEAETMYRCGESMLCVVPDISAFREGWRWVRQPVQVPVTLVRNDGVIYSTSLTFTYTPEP
T4 sequence (P31266 53-474): as the sequence (P31266 53-474 E89G) above, with G37E counted along it
T6 sequence (P31266 53-474 K195E): as the sequence (P31266 53-474 E89G) above, with G37E, K143E counted along it
T3 sequence (P31266 53-474 E89G): as the sequence (P31266 53-474 E89G) above
T1 sequence (P31266 53-474): as the sequence (P31266 53-474 E89G) above, with G37E counted along it
T2 sequence (P31266 53-474 K195E): as the sequence (P31266 53-474 E89G) above, with G37E, K143E counted along it

B1: SHARP residues 2776-2833 (domain or fragment, human, UniProt Q96T58 2776-2833, looked up)
chain: RASANENSRFHPGSMPVIDDRPADAGSGAGLRVNTSEGVVLLSYSGQKTEGPQRISAK
notes: called mouse SHARP in the results and the legend; also called mouse SHARP; mouse co-repressor SHARP; source: recombinant from pSMT3, purified as previously described
As a reminder, the Kd is a measure of binding affinity in units of concentration. Higher therefore signals lower affinity. As for B1, the Kd with mouse Rbpj (53-474) WT is approximately 5 nM; in experiment [1], 21 nM; with mouse Rbpj (53-474) E89G, approximately 5 nM.

B2: SHARP residues 2776-2833 (domain or fragment, human, UniProt Q96T58 2776-2833, looked up)
chain: RASANENSRFHPGSMPVIDDRPADAGSGAGLRVNTSEGVVLLSYSGQKTEGPQRISAK
notes: the methods say human SHARP, the results and legend say mouse SHARP; species told as human in the methods and as mouse in the results and legend; also called mouse SHARP; source: bacterial recombinant, pSMT3, purified as previously described
As for B2, the Ka with mouse Rbpj WT (53-474) was 1.5e+09 M⁻¹; in the experiment with mouse Rbpj E89G (53-474), 2.9e+08 M⁻¹; in experiment [2], 5.8e+07 M⁻¹. For the same molecule, the values for the Kd (with mouse Rbpj WT (53-474); with mouse Rbpj E89G (53-474); in experiment [2]) were 3.5 nM, 5.2 nM and 21.1 nM, respectively.

B3: Notch1 RAM peptide (human Notch1 residues 1754-1781) (peptide)
peptide: VLLSRKRRRQHGQLWFPEGFKVSEASKK
notes: Notch1 RAM domain; the methods give human Notch1 residues 1754-1781, the results and the legend call it the mouse RAM domain; Methods say human Notch1 residues, results say mouse; also called mouse Notch 1 RAM; mouse RAM domain from Notch1; source: synthetic peptide (Peptide2.0, 95% purity)
On to B3, for which the Kd (with mouse Rbpj (53-474) WT; in experiment [1]; in the experiment with mouse Rbpj (53-474) E89G) was approximately 20 nM each time.

B4: Notch1 RAM peptide (residues 1754-1781) (peptide)
peptide: VLLSRKRRRQHGQLWFPEGFKVSEASKK
notes: Notch1, RAM domain; also called mNotch1 RAM; mouse Notch 1 RAM; source: synthetic peptide (Peptide2.0, 95% purity)
With B4, the figures for the Ka (with mouse Rbpj WT (53-474); in the experiment with mouse Rbpj E89G (53-474); in experiment [2]) were 4.8e+07 M⁻¹, 5.6e+07 M⁻¹ and 5.1e+07 M⁻¹, respectively. Moreover, the results for the Kd (with mouse Rbpj WT (53-474); in the experiment with mouse Rbpj E89G (53-474); in experiment [2]) were 20.8 nM, 19.9 nM and 22.4 nM, respectively.

Source of the values: publication PMC9398005, “A Drosophila Su(H) model of Adams-Oliver Syndrome reveals cofactor titration as a mechanism underlying developmental defects” (PLoS Genetics, 2021).
